This passage reports Kd results from PMC7774954 (PLoS ONE, 2020).

Where no end group is shown, it is not given here. The star is where a group is joined. Biotin = O=C1N[C@H]2[C@H](CS[C@H]2CCCCC(=O)*)N1; TTDS = NCCCOCCOCCOCCCNC(=O)CCC(=O)*

The target of assay [1] is T1, MAGI2-2, second PDZ domain of MAGI2 (human, UniProt Q86UL8 426-510).
T1 construct: not shown: His6, N-terminal, kept; MBP, N-terminal, kept
In words: fluorescence polarisation; competitive: pre-formed complex of PDZ domain (>60-80% complex) and 50 nM fluorescent tracer peptide, increasing amount of unlabeled PTEN peptide (8 concentrations); 20 mM HEPES pH 7.5, 150 mM NaCl, 0.5 mM TCEP, 0.01% Tween 20; triplicate; competitive binding model (ProFit); apparent. As to conditions: both partners purified.

The target of assay [2] is T2, PDZD7-3, third PDZ domain of PDZD7 (human, UniProt Q9H5P4 862-934).
T2 construct: PDZD7, human, PDZ domain 3; not shown: His6, N-terminal, kept; MBP, N-terminal, kept
T2 sequence (looked up): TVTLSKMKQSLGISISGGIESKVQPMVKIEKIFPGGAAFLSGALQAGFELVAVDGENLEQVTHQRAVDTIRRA
The assay is described as above. The following applies: both partners purified.

Assay [3] has as its target T2, PDZD7-3, third PDZ domain of PDZD7. In words: fluorescence polarisation; direct: N-terminally fluorescein-labelled PBM peptide (tracer) with increasing amounts of MBP-PDZ; 384-well plates; triplicate; direct binding model (ProFit). The following applies: both partners purified.
The target of assay [4] is T3, PARD3B-1, first PDZ domain of PARD3B (human, UniProt Q8TEW8 201-289).
T3 construct: PARD3B, human, PDZ domain 1; not shown: His6, N-terminal, kept; MBP, N-terminal, kept
T3 sequence (looked up): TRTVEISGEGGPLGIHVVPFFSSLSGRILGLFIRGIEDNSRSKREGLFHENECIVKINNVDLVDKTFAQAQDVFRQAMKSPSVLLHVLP
The assay is described as above. As to conditions: both partners purified.

The target in assay [5] is T4, GRID2IP-2, second PDZ domain of GRID2IP (human, UniProt A4D2P6 279-356).
T4 construct: GRID2IP, human, PDZ domain 2; not shown: His6, N-terminal, kept; MBP, N-terminal, kept
T4 sequence (A4D2P6 279-356): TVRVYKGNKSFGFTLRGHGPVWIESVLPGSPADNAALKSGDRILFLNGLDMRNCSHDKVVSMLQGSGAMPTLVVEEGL
The description is as above. The following applies: both partners purified.

In assay [6] the target is DLG4-1 (human, UniProt P78352 65-151). In words: holdup assay; biotinylated PBM peptide saturating streptavidin resin (biotin resin as reference); tag-PDZ at 4 uM in crude E. coli lysate, 15 min, filtration, free tag-PDZ by capillary electrophoresis; singlicate; BI cut-off 0.20; BI converted into KD with the peptide concentration back-calculated from FP. The following applies: one partner purified.
Chain of DLG4-1 (P78352 65-151, looked up): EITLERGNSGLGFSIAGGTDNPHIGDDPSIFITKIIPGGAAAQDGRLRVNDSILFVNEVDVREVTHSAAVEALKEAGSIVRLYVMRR

The target in assay [7] is T5, NHERF1-1 (human, UniProt O14745 14-94).
T5 construct: PDZ domain number 1 of human NHERF1; also called NHERF1 PDZ dom 1; first PDZ domain of the NHERF1 protein; source: E. coli, in crude cell lysate; not shown: His, N-terminal, kept
T5 sequence (looked up): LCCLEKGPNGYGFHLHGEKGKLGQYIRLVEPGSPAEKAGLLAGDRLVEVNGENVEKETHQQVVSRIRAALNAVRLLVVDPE
The assay is described as above. The following applies: one partner purified.

The target in assay [8] is T6, MAGI2-2 (human, UniProt Q86UL8 426-510).
T6 construct: PDZ domain number 2 of human MAGI2; also called MAGI2 PDZ dom 2; source: E. coli, in crude cell lysate; not shown: His, N-terminal, kept
T6 sequence (Q86UL8 426-510): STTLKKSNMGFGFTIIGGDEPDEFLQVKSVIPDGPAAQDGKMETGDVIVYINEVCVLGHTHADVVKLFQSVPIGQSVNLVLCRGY
Described as above. As to conditions: one partner purified.

The target of assay [9] is T7, MAGI2-3 (human, UniProt Q86UL8 605-683).
T7 construct: PDZ domain number 3 of human MAGI2; also called MAGI2 PDZ dom 3; source: E. coli, in crude cell lysate; not shown: His, N-terminal, kept
T7 sequence (Q86UL8 605-683): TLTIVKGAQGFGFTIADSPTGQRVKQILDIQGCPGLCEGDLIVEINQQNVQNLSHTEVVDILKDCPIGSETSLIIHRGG
The description is as above. As to conditions: one partner purified.

Assay [10] addresses T8, MAGI1-3 (human, UniProt Q96QZ7 643-721).
T8 construct: PDZ domain number 3 of human MAGI1; also called MAGI1 PDZ dom 3; source: E. coli, in crude cell lysate; not shown: His, N-terminal, kept
The description is as above. The following applies: one partner purified.

The target in assay [11] is T9, MAGI3-2 (human, UniProt Q5TCQ9 410-492).
T9 construct: PDZ domain number 2 of human MAGI3; also called MAGI3 PDZ dom 2; source: E. coli, in crude cell lysate; not shown: His, N-terminal, kept
T9 sequence (Q5TCQ9 410-492): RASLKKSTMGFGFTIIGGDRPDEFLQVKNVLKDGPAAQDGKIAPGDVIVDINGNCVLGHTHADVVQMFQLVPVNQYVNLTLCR
Described as above. As to conditions: one partner purified.

For assay [12], the target named is T10, NHERF2-1 (human, UniProt Q15599 11-90).
T10 construct: PDZ domain number 1 of human NHERF2; also called NHERF2 PDZ dom 1; source: E. coli, in crude cell lysate; not shown: His, N-terminal, kept
T10 sequence (Q15599 11-90): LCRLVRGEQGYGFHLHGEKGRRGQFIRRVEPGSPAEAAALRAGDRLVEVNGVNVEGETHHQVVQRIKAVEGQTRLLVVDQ
The description is as above. As to conditions: one partner purified.

For assay [13], the target named is T11, PARD3-3 (human, UniProt Q8TEW0 590-677).
T11 construct: the text says PARD3-1; also called PARD3 PDZ dom 3; source: E. coli, in crude cell lysate; not shown: His, N-terminal, kept
T11 sequence (Q8TEW0 590-677): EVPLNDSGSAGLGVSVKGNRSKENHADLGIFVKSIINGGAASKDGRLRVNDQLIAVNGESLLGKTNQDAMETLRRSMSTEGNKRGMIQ
The description is as above. As to conditions: one partner purified.

Assay [14] deals with T12, DLG1-2 (human, UniProt Q12959 319-405).
T12 construct: PDZ domain number 2 of human DLG1; also called DLG1 PDZ dom 2; source: E. coli, in crude cell lysate; not shown: His, N-terminal, kept
The description is as above. The following applies: one partner purified.

In assay [15] the target is T13, NHERF2-2 (human, UniProt Q15599 150-230).
T13 construct: PDZ domain number 2 of human NHERF2; also called NHERF2 PDZ dom 2; source: E. coli, in crude cell lysate; not shown: His, N-terminal, kept
T13 sequence (Q15599 150-230): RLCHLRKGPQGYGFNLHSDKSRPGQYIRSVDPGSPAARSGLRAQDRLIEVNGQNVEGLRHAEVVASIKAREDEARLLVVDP
The description is as above. As to conditions: one partner purified.

Assay [16] has as its target T14, PTPN13-2 (human, UniProt Q12923 1368-1452).
T14 construct: PDZ domain number 2 of human PTPN13; also called PTPN13 PDZ dom 2; source: E. coli, in crude cell lysate; not shown: His, N-terminal, kept
T14 sequence (looked up): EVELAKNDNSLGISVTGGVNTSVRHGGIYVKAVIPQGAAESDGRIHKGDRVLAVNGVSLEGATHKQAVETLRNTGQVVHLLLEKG
The description is as above. As to conditions: one partner purified.

Assay [17] has as its target T4, GRID2IP-2, second PDZ domain of GRID2IP. In words: fluorescence polarisation; competitive: pre-formed complex of PDZ domain (>60-80% complex) and 50 nM fluorescent tracer peptide, increasing amount of unlabeled PTEN peptide (8 concentrations); 20 mM HEPES pH 7.5, 150 mM NaCl, 0.5 mM TCEP, 0.01% Tween 20; triplicate; competitive binding model (ProFit); apparent. As to conditions: both partners purified.

T8 sequence (Q96QZ7 643-721): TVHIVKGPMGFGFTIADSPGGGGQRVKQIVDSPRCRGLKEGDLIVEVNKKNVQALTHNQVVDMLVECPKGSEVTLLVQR
T1 sequence (Q86UL8 426-510): as the sequence (Q86UL8 426-510) above

B1: PTEN_13, 13-mer wild-type PDZ-binding motif peptide of PTEN (peptide)
peptide: {Biotin-TTDS}-PFDEDQHTQITKV
notes: source: synthetic peptide, bought: JPT Innovative Peptide Solutions (70%-80% purity)
As to B1, the values for the Kd in [1] and in assay [2] were 79.7 µM and 5.76 µM, respectively.

As for fluorescein-KLPSTTL (source: synthetic peptide) [fRSK1, fluorescein-labelled RSK1 PBM peptide], the figures for the Kd in assay [3], in assay [4] and in [5] were 1.57 µM, 33.7 µM and 5.43 µM, respectively.

B2: PTEN_Ac (peptide, UniProt P60484 393-403, looked up)
peptide: {Biotin-TTDS}-DEDQHTQITK(Ac)V
notes: also called acetylated version of PTEN_11; acetylated peptide; source: synthetic peptide (Chemical Peptide Synthesis Service of the IGBMC, Fmoc)
Consider B2, for which the Kd in assay [6] was 155 µM; in assay [7], 14 µM; in assay [8] it was 56 µM; in assay [9] it was 15 µM; in assay [10] it was 10 µM.

B3: PTEN_KR (peptide, UniProt P60484 393-403, looked up)
peptide: {Biotin-TTDS}-DEDQHTQITRV
notes: also called K402R mutant; source: synthetic peptide (Chemical Peptide Synthesis Service of the IGBMC, Fmoc)
Consider B3, for which the Kd in [6] was 81 µM; in assay [11] it was 29 µM; in assay [12], 120 µM; in assay [13], 56 µM; in assay [14], 71 µM; in [15], 21 µM. Moreover, the Kd is 153 µM in assay [16]; 4 µM in assay [7]; 29 µM in assay [8]; 21 µM in assay [9]; 15 µM in assay [10].

B4: PTEN_Ac, 11-mer PTEN PDZ-binding motif peptide acetylated at K402 (peptide)
peptide: {Biotin-TTDS}-DEDQHTQITK(Ac)V
notes: PTEN, human, canonical isoform I, residues 393-403, K402 acetylated (acK); source: synthetic peptide (Chemical Peptide Synthesis Service of the IGBMC)
As to B4, the Kd in [17] is 36.7 µM; in assay [1] it was 66.4 µM; in [2], 2.84 µM.

B5: PTEN_11 (peptide, UniProt P60484 393-403, looked up)
peptide: {Biotin-TTDS}-DEDQHTQITKV
notes: also called 11-mer wild-type PTEN PBM peptide; native PTEN_11 PBM; source: synthetic peptide (Chemical Peptide Synthesis Service of the IGBMC, Fmoc)
Regarding B5, the Kd in assay [6] was 293 µM; in [7], 33 µM; in [8] it was 152 µM; in [9], 47 µM; in [10] it was 30 µM.

B6: PTEN_11, 11-mer wild-type PDZ-binding motif peptide of PTEN (peptide)
peptide: {Biotin-TTDS}-DEDQHTQITKV
notes: Labelled 'PTEN' in Supp; source: synthetic peptide (Chemical Peptide Synthesis Service of the IGBMC)
Turning to B6, the Kd was determined as 87 µM in assay [17] and 20.1 µM in [2].

B7: PTEN_KR, 11-mer PTEN PDZ-binding motif peptide with K402R (peptide)
peptide: {Biotin-TTDS}-DEDQHTQITRV
notes: PTEN, human, canonical isoform I, residues 393-403 with K402R; source: synthetic peptide (Chemical Peptide Synthesis Service of the IGBMC)
Regarding B7, the Kd in assay [17] was 51.6 µM; in assay [2] it was 8.2 µM.
